{"source": "patent US20250163162A1", "binders": {"B1": {"name": "hIL10Ra_VHH14 - hIL2Rg_VHH19, linker GS, tag his (bispecific antibody, not shown: small tags and cut ends)", "chain": "QVQLQESGGGSVQAGGSLRLSCGASGYTYSSYCMGWFRQVPGKEREGVAVIDSDGSTSYADSVKGRFTISKDNGKNTLYLQMNSLKPEDTAMYYCAADLGHYRPPCGVLYLGMDYWGKGTQVTVSSGSQVQLQESGGGSVQAGGSLRLSCTASGFTFDDREMNWYRQAPGNECELVSTISSDGSTYYADSVKGRFTISQDNAKNTVYLQMDSVKPEDTAVYYCAADFMIAIQAPGAGCWGQGTQVTVSS"}, "B2": {"name": "hIL10Ra_VHH14 - hIL2Rg_VHH19, No linker, tag his (bispecific antibody, not shown: small tags and cut ends)", "chain": "QVQLQESGGGSVQAGGSLRLSCGASGYTYSSYCMGWFRQVPGKEREGVAVIDSDGSTSYADSVKGRFTISKDNGKNTLYLQMNSLKPEDTAMYYCAADLGHYRPPCGVLYLGMDYWGKGTQVTVSSQVQLQESGGGSVQAGGSLRLSCTASGFTFDDREMNWYRQAPGNECELVSTISSDGSTYYADSVKGRFTISQDNAKNTVYLQMDSVKPEDTAVYYCAADFMIAIQAPGAGCWGQGTQVTVSS"}}, "target": "T1, IL10Rα/IL2Rγ receptor (human) (UniProt Q13651)", "T1 sequence (looked up) 1": "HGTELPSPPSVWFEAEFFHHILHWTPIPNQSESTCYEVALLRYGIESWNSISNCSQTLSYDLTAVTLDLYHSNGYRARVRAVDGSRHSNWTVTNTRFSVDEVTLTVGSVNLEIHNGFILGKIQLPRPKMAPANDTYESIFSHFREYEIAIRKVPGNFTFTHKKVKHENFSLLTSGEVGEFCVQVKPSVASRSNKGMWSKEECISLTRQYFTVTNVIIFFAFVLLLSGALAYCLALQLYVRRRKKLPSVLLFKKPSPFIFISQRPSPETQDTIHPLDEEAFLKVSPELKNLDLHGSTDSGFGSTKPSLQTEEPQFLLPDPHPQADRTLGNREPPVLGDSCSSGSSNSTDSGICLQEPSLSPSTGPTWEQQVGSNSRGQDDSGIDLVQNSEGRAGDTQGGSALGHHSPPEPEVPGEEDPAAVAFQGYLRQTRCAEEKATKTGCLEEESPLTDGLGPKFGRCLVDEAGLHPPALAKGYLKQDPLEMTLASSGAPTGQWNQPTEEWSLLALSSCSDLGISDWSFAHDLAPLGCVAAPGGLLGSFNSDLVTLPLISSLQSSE", "T1 sequence (looked up) 2": "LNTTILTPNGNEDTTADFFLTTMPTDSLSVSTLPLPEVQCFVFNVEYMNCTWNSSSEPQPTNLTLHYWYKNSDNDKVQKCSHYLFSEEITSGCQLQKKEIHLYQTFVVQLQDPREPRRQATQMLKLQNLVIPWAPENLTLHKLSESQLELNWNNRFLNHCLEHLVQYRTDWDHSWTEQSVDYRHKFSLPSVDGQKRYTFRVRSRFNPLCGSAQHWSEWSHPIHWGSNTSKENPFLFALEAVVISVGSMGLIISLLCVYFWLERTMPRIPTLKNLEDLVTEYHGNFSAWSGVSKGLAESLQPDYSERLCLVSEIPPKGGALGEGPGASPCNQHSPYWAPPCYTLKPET", "assay": "cell-based or functional assay", "data": [{"binder": "B1", "values": [{"measurement": "Granzyme A secretion, CD8 T cells, at 0 µM", "result": 25200, "unit": "pg/mL"}, {"measurement": "Granzyme A secretion, CD8 T cells, at 0.0001 µM", "result": 19900, "unit": "pg/mL"}, {"measurement": "Granzyme A secretion, CD8 T cells, at 0.001 µM", "result": 22700, "unit": "pg/mL"}, {"measurement": "Granzyme A secretion, CD8 T cells, at 0.01 µM", "result": 25900, "unit": "pg/mL"}, {"measurement": "Granzyme A secretion, CD8 T cells, at 0.1 µM", "result": 26100, "unit": "pg/mL"}, {"measurement": "Granzyme A secretion, CD8 T cells, at 1 µM", "result": 27900, "unit": "pg/mL"}, {"measurement": "Granzyme A secretion, CD8 T cells, at 10 µM", "result": 28600, "unit": "pg/mL"}, {"measurement": "Granzyme A secretion, CD8 T cells, at 100 µM", "result": 28400, "unit": "pg/mL"}, {"measurement": "Granzyme B secretion, CD8 T cells, at 0 µM", "result": 77700, "unit": "pg/mL"}, {"measurement": "Granzyme B secretion, CD8 T cells, at 0.0001 µM", "result": 49200, "unit": "pg/mL"}, {"measurement": "Granzyme B secretion, CD8 T cells, at 0.001 µM", "result": 49400, "unit": "pg/mL"}, {"measurement": "Granzyme B secretion, CD8 T cells, at 0.01 µM", "result": 55500, "unit": "pg/mL"}, {"measurement": "Granzyme B secretion, CD8 T cells, at 0.1 µM", "result": 58000, "unit": "pg/mL"}, {"measurement": "Granzyme B secretion, CD8 T cells, at 1 µM", "result": 80200, "unit": "pg/mL"}, {"measurement": "Granzyme B secretion, CD8 T cells, at 10 µM", "result": 87000, "unit": "pg/mL"}, {"measurement": "Granzyme B secretion, CD8 T cells, at 100 µM", "result": 99900, "unit": "pg/mL"}, {"measurement": "IFNγ secretion, CD8 T cells, at 0 µM", "result": 122000, "unit": "pg/mL"}, {"measurement": "IFNγ secretion, CD8 T cells, at 0.0001 µM", "result": 91700, "unit": "pg/mL"}, {"measurement": "IFNγ secretion, CD8 T cells, at 0.001 µM", "result": 105000, "unit": "pg/mL"}, {"measurement": "IFNγ secretion, CD8 T cells, at 0.01 µM", "result": 122000, "unit": "pg/mL"}, {"measurement": "IFNγ secretion, CD8 T cells, at 0.1 µM", "result": 129000, "unit": "pg/mL"}, {"measurement": "IFNγ secretion, CD8 T cells, at 1 µM", "result": 134000, "unit": "pg/mL"}, {"measurement": "IFNγ secretion, CD8 T cells, at 10 µM", "result": 143000, "unit": "pg/mL"}, {"measurement": "IFNγ secretion, CD8 T cells, at 100 µM", "result": 143000, "unit": "pg/mL"}, {"measurement": "IL-1β secretion, LPS treated monocytes, at 0 µM", "result": 6240, "unit": "pg/mL"}, {"measurement": "IL-1β secretion, LPS treated monocytes, at 0 µM (LPS only)", "result": 6880, "unit": "pg/mL"}, {"measurement": "IL-1β secretion, LPS treated monocytes, at 0.0001 µM", "result": 5960, "unit": "pg/mL"}, {"measurement": "IL-1β secretion, LPS treated monocytes, at 0.001 µM", "result": 6270, "unit": "pg/mL"}, {"measurement": "IL-1β secretion, LPS treated monocytes, at 0.01 µM", "result": 5060, "unit": "pg/mL"}, {"measurement": "IL-1β secretion, LPS treated monocytes, at 0.1 µM", "result": 6590, "unit": "pg/mL"}, {"measurement": "IL-1β secretion, LPS treated monocytes, at 1 µM", "result": 5760, "unit": "pg/mL"}, {"measurement": "IL-1β secretion, LPS treated monocytes, at 10 µM", "result": 6710, "unit": "pg/mL"}, {"measurement": "IL-1β secretion, LPS treated monocytes, at 100 µM", "result": 8140, "unit": "pg/mL"}, {"measurement": "IL-9 secretion, CD8 T cells, at 0 µM", "result": 1350, "unit": "pg/mL"}, {"measurement": "IL-9 secretion, CD8 T cells, at 0.0001 µM", "result": 918, "unit": "pg/mL"}, {"measurement": "IL-9 secretion, CD8 T cells, at 0.001 µM", "result": 998, "unit": "pg/mL"}, {"measurement": "IL-9 secretion, CD8 T cells, at 0.01 µM", "result": 1070, "unit": "pg/mL"}, {"measurement": "IL-9 secretion, CD8 T cells, at 0.1 µM", "result": 1230, "unit": "pg/mL"}, {"measurement": "IL-9 secretion, CD8 T cells, at 1 µM", "result": 1610, "unit": "pg/mL"}, {"measurement": "IL-9 secretion, CD8 T cells, at 10 µM", "result": 1730, "unit": "pg/mL"}, {"measurement": "IL-9 secretion, CD8 T cells, at 100 µM", "result": 1880, "unit": "pg/mL"}]}, {"binder": "B2", "values": [{"measurement": "Granzyme A secretion, CD8 T cells, at 0 µM", "result": 25200, "unit": "pg/mL"}, {"measurement": "Granzyme A secretion, CD8 T cells, at 0.0001 µM", "result": 19700, "unit": "pg/mL"}, {"measurement": "Granzyme A secretion, CD8 T cells, at 0.001 µM", "result": 22300, "unit": "pg/mL"}, {"measurement": "Granzyme A secretion, CD8 T cells, at 0.01 µM", "result": 22200, "unit": "pg/mL"}, {"measurement": "Granzyme A secretion, CD8 T cells, at 0.1 µM", "result": 22900, "unit": "pg/mL"}, {"measurement": "Granzyme A secretion, CD8 T cells, at 1 µM", "result": 24400, "unit": "pg/mL"}, {"measurement": "Granzyme A secretion, CD8 T cells, at 10 µM", "result": 26000, "unit": "pg/mL"}, {"measurement": "Granzyme A secretion, CD8 T cells, at 100 µM", "result": 27500, "unit": "pg/mL"}, {"measurement": "Granzyme B secretion, CD8 T cells, at 0 µM", "result": 77700, "unit": "pg/mL"}, {"measurement": "Granzyme B secretion, CD8 T cells, at 0.0001 µM", "result": 49300, "unit": "pg/mL"}, {"measurement": "Granzyme B secretion, CD8 T cells, at 0.001 µM", "result": 47300, "unit": "pg/mL"}, {"measurement": "Granzyme B secretion, CD8 T cells, at 0.01 µM", "result": 44200, "unit": "pg/mL"}, {"measurement": "Granzyme B secretion, CD8 T cells, at 0.1 µM", "result": 54800, "unit": "pg/mL"}, {"measurement": "Granzyme B secretion, CD8 T cells, at 1 µM", "result": 56300, "unit": "pg/mL"}, {"measurement": "Granzyme B secretion, CD8 T cells, at 10 µM", "result": 67100, "unit": "pg/mL"}, {"measurement": "Granzyme B secretion, CD8 T cells, at 100 µM", "result": 74300, "unit": "pg/mL"}, {"measurement": "IFNγ secretion, CD8 T cells, at 0 µM", "result": 122000, "unit": "pg/mL"}, {"measurement": "IFNγ secretion, CD8 T cells, at 0.0001 µM", "result": 102000, "unit": "pg/mL"}, {"measurement": "IFNγ secretion, CD8 T cells, at 0.001 µM", "result": 104000, "unit": "pg/mL"}, {"measurement": "IFNγ secretion, CD8 T cells, at 0.01 µM", "result": 111000, "unit": "pg/mL"}, {"measurement": "IFNγ secretion, CD8 T cells, at 0.1 µM", "result": 111000, "unit": "pg/mL"}, {"measurement": "IFNγ secretion, CD8 T cells, at 1 µM", "result": 123000, "unit": "pg/mL"}, {"measurement": "IFNγ secretion, CD8 T cells, at 10 µM", "result": 131000, "unit": "pg/mL"}, {"measurement": "IFNγ secretion, CD8 T cells, at 100 µM", "result": 134000, "unit": "pg/mL"}, {"measurement": "IL-1β secretion, LPS treated monocytes, at 0 µM", "result": 6240, "unit": "pg/mL"}, {"measurement": "IL-1β secretion, LPS treated monocytes, at 0 µM (LPS only)", "result": 6880, "unit": "pg/mL"}, {"measurement": "IL-1β secretion, LPS treated monocytes, at 0.0001 µM", "result": 5540, "unit": "pg/mL"}, {"measurement": "IL-1β secretion, LPS treated monocytes, at 0.001 µM", "result": 5550, "unit": "pg/mL"}, {"measurement": "IL-1β secretion, LPS treated monocytes, at 0.01 µM", "result": 5370, "unit": "pg/mL"}, {"measurement": "IL-1β secretion, LPS treated monocytes, at 0.1 µM", "result": 5290, "unit": "pg/mL"}, {"measurement": "IL-1β secretion, LPS treated monocytes, at 1 µM", "result": 5800, "unit": "pg/mL"}, {"measurement": "IL-1β secretion, LPS treated monocytes, at 10 µM", "result": 5790, "unit": "pg/mL"}, {"measurement": "IL-1β secretion, LPS treated monocytes, at 100 µM", "result": 7100, "unit": "pg/mL"}, {"measurement": "IL-9 secretion, CD8 T cells, at 0 µM", "result": 1350, "unit": "pg/mL"}, {"measurement": "IL-9 secretion, CD8 T cells, at 0.0001 µM", "result": 933, "unit": "pg/mL"}, {"measurement": "IL-9 secretion, CD8 T cells, at 0.001 µM", "result": 1120, "unit": "pg/mL"}, {"measurement": "IL-9 secretion, CD8 T cells, at 0.01 µM", "result": 1140, "unit": "pg/mL"}, {"measurement": "IL-9 secretion, CD8 T cells, at 0.1 µM", "result": 1070, "unit": "pg/mL"}, {"measurement": "IL-9 secretion, CD8 T cells, at 1 µM", "result": 1220, "unit": "pg/mL"}, {"measurement": "IL-9 secretion, CD8 T cells, at 10 µM", "result": 1440, "unit": "pg/mL"}, {"measurement": "IL-9 secretion, CD8 T cells, at 100 µM", "result": 1670, "unit": "pg/mL"}]}]}
